Reference: US20240409647A1 (SINOMAB BIOSCIENCE, published 2024)

Legend:
[1] = target: T1, human IL-17 receptor subunit C (human, UniProt Q8NAC3-2 21-467, limits assumed); experiment: ELISA, coated receptor; SM17 at 0.08 µg/mL; well 1
T1 construct: also called IL17RC; hIL17RC
T1 sequence (looked up): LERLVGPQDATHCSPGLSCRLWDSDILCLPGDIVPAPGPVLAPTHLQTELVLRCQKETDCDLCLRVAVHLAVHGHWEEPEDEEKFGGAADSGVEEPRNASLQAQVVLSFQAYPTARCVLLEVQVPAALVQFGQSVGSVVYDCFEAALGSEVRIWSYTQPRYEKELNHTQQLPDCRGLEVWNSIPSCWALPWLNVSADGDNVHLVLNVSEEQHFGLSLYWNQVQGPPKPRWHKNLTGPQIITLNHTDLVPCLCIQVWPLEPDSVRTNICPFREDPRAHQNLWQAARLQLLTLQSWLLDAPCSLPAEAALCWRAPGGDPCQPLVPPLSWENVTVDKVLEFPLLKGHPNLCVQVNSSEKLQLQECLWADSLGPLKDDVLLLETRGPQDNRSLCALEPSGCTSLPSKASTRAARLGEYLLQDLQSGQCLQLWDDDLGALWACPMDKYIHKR

[2] = target: T1, human IL-17 receptor subunit C; experiment: ELISA, coated receptor; SM17 at 0.0032 µg/mL; well 1
[3] = target: T2, human IL-17RB protein (recombinant, R&D systems) (human); experiment: ELISA, coated receptor; SM17 at 0.0032 µg/mL; well 2
T2 construct: Bought protein; also called hIL17RB
T2 sequence (Q9NRM6 whole entry, looked up): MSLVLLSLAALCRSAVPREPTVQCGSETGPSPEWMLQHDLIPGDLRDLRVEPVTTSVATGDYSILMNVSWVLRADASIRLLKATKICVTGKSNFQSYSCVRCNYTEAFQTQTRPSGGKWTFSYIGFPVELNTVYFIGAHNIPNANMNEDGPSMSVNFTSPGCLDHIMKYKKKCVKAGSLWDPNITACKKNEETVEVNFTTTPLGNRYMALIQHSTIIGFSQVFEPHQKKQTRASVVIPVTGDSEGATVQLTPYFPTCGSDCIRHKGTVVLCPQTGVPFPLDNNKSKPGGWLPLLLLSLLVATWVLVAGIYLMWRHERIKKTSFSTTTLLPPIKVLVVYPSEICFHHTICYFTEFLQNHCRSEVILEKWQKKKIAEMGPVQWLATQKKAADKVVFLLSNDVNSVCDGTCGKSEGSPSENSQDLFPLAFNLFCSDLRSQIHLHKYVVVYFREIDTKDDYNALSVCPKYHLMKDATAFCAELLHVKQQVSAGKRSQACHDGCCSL

[4] = target: T3, human IL-17 receptor subunit A (human, UniProt Q96F46 33-320); experiment: as above
T3 construct: also called IL17RA; hIL17RA

[5] = target: T1, human IL-17 receptor subunit C; experiment: as above
[6] = target: T4, human IL-17 receptor subunit D (human, UniProt Q8NFM7 28-299, limits assumed); experiment: as above
T4 construct: also called IL17RD; hIL 17RD
T4 sequence (looked up): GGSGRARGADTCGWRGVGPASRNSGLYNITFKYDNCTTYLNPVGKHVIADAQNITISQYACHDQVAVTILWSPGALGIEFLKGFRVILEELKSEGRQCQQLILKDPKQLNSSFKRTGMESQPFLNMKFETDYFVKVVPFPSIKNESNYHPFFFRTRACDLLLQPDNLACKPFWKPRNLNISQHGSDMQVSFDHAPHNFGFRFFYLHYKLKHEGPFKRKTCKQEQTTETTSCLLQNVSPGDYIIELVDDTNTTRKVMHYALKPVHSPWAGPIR

[7] = target: T5, human IL-17 receptor subunit E (human, UniProt Q8NFR9 24-454, limits assumed); experiment: as above
T5 construct: also called hIL17RE
T5 sequence (looked up): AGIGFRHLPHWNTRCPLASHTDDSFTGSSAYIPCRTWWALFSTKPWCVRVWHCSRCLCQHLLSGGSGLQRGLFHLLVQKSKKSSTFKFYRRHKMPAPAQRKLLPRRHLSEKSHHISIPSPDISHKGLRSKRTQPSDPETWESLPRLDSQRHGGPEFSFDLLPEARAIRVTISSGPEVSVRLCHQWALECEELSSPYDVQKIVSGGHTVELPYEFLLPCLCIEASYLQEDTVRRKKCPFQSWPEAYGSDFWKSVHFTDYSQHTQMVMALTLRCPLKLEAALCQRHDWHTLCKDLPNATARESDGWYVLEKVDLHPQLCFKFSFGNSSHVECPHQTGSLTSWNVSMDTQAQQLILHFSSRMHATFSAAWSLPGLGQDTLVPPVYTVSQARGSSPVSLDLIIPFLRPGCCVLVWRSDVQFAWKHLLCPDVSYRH

human TSLP (R&D systems) = target: T6, human TSLP (R&D systems) (human, UniProt Q969D9 29-159); experiment: BLI (Octet RED96), binder captured via anti-human Fab CH1, TSLP in solution
T6 construct: also called thymic stromal lymphopoietin
Procedure: Biosensors immobilized with irrelevant antibody (SM03, anti-human CD22 chimeric IgG1 antibody, SinoMab BioScience Limited, 20 μg/mL) were used as control reference.

[8] = target: T2, human IL-17RB protein (recombinant, R&D …); experiment: BLI (Octet RED96), SM17 captured via anti-human Fab CH1, IL17RB in solution; trial 1
Source text: (§1) Irrelevant antibody (SM03, anti-human CD22 chimeric IgG1 antibody, SinoMab BioScience Limited) was used as the control reference.

[9] = target: T7, cynomolgus monkey IL-17RB protein (recombinant, R&D systems) (cynomolgus monkey, UniProt A0A2K5TUK1 18-289); experiment: as above
T7 construct: also called cynomolgus IL17RB; Cyno-IL17RB
T7 sequence: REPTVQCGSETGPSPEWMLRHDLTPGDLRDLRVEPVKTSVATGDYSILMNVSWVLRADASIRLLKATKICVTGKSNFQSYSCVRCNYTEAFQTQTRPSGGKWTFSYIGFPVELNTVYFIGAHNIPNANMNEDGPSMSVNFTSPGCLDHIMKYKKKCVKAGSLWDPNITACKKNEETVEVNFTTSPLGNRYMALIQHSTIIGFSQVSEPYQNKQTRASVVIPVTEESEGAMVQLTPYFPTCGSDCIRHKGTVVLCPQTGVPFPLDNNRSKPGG
Source text: as §1

- OD 450 nm Absorption [1]: 0.02 OD450
- OD 450 nm Absorption [2]: 0.03 OD450
- OD 450 nm Absorption [3]: 0.07 OD450
- OD 450 nm Absorption [4]: -0.03 OD450
- OD 450 nm Absorption [5]: -0.04 OD450
- OD 450 nm Absorption [6]: -0.04 OD450
- OD 450 nm Absorption [7]: -0.02 OD450
- Kd (human TSLP (R&D systems)): 100 nM
- koff (human TSLP (R&D systems)): 0.001 s⁻¹
- Kd [8]: 0.194 nM
- koff [8]: 4.3e-05 s⁻¹
- kon [8]: 222000 M⁻¹ s⁻¹
- Kd [9]: 0.852 nM
- koff [9]: 2.73e-05 s⁻¹
- kon [9]: 32100 M⁻¹ s⁻¹
B1: SM17 (antibody, human IgG4 S228P, kappa, V domains shown)
VH: QVQLVQSGAEVKKPGASVKVSCKASGYTFISYWMNWVRQAPGQGLEWMGRIDPYDSEIQYNQKFKDRVTMTRDTSISTAYMELSRLRSDDTAVYYCARSGGFDWFAYWGQGTLVTVSS
VL: DIQMTQSPSSLSASVGDRVTITCRASENINSNLAWYQQKPGKAPKLLLYDVTNLADGVPSRFSGSGSGTDYTLTISSLQPEDFATYYCQHFWGPPYTFGGGTKVEIKR
notes: other paragraphs and claim 15 call the same entries VH and VL; also called humanized anti-IL17RB monoclonal antibody
